T1: YaaT (His6-SUMO tag removed, in the co-purified complex) (Bacillus subtilis, UniProt P37541 1-275)
T1 sequence (looked up): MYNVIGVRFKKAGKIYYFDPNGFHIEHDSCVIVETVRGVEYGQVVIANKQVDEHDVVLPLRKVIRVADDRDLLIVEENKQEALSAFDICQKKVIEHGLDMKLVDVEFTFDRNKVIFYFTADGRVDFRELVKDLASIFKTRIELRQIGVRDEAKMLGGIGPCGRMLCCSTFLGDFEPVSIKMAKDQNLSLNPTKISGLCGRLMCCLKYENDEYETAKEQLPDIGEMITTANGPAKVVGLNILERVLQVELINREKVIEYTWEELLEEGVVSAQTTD

T2: T18-Spo0F (Bacillus subtilis, UniProt P06628 1-124)
T2 sequence (looked up): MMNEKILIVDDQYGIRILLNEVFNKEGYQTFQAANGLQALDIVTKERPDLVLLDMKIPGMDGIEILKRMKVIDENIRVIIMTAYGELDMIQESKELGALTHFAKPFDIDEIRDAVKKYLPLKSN

B1: YmcA (GST tag removed) (natural protein, Bacillus subtilis, UniProt O31779 1-143, looked up)
chain: MTLYSKKDIVQQARNLAKMISETEEVDFFKRAEAQINENDKVSTIVNQIKALQKQAVNLKHYEKHEALKQVEAKIDALQEELEEIPVIQEFRDSQMEVNDLLQLVAHTISNQVTNEIITSTGGDLLKGETGSKVKHSNNSCSL
B2: YmcA-T25 (natural protein, Bacillus subtilis, UniProt O31779 1-143, looked up)
chain: B1 chain
B3: YlbF (GST tag removed, in the co-purified complex) (natural protein, Bacillus subtilis, UniProt O34412 1-149, looked up)
chain: MYATMESVRLQSEAQQLAEMILQSETAENYRNCYKRLQEDEEAGRIIRSFIKIKEQYEDVQRFGKYHPDYREISRKMREIKRELDLNDKVADFKRAENELQSILDEVSVEIGTAVSEHVKVPTGNPYFDGLSSCGGGCGSGGSCGCKVS

Tests used:
[1] = biological target: T1, YaaT (His6-SUMO tag removed, in the …); assay: SEC
[2] = biological target: B3; assay: SEC
[3] = biological target: the molecule itself; assay: two-hybrid
[4] = biological target: T2, T18-Spo0F; assay: two-hybrid

With B1 the “stoichiometry N” value [1] was 2.2 fold and the “stoichiometry N” value [2] was 2.2 fold.

In the case of B2, the “β-galactosidase activity, ratio above the T18–T25 negative control” value [3] is reported as 48.3 ratio above the T18–T25 negative control and the “β-galactosidase activity, ratio above the T18–T25 negative control” value [4] is reported as 11.3 ratio above the T18–T25 negative control.

B3: binds [1].

Reference: publication PMC3781937 (Molecular microbiology, 2013)
